Test results taken from paper PMC7293015 (Nucleic Acids Research, 2020).
Numbering of substitutions follows the chain as printed. Numbers in names are those of the source.

T1: StBax1 mutant R86A/R87A (Sulfolobus tokodaii, UniProt Q970I1 1-481, R86A | R87A)
T1 construct: Expression and purification of the mutants are not described
T1 sequence: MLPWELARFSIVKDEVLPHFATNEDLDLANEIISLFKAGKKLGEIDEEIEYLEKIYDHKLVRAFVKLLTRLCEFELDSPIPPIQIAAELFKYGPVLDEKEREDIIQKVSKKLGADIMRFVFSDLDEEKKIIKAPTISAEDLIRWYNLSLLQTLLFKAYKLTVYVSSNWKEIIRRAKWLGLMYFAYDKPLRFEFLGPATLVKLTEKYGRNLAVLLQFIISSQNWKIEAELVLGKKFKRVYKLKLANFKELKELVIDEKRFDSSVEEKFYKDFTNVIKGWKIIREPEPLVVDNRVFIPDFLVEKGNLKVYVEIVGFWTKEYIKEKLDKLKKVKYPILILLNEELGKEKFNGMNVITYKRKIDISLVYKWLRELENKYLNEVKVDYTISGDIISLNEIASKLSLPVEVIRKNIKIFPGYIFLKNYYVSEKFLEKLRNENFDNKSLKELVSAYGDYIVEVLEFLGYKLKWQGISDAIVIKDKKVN

T2: AfBax1 mutant D133A/E135A (Archaeoglobus fulgidus, UniProt O29890 1-468, D133A | E135A)
T2 construct: Expression and purification of the mutants are not described; also called AfBax1 with substitutions D133A/E135A
T2 sequence: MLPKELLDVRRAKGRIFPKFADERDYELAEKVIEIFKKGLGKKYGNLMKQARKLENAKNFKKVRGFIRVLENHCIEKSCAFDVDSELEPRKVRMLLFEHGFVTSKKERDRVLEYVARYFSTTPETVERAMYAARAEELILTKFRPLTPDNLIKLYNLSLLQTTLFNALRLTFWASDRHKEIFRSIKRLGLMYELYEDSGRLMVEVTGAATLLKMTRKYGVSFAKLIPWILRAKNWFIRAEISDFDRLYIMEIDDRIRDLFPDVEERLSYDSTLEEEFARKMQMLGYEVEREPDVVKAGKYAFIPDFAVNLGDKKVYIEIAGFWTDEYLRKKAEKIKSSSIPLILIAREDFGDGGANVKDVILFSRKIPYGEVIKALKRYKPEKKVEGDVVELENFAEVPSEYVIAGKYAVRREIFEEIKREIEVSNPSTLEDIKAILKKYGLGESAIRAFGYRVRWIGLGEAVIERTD

B1: His6-StBax1 (Sulfolobus tokodaii Bax1) (enzyme, UniProt Q970I1 1-481, looked up)
chain: T1 sequence with A86R, A87R
notes: Homodimer when alone in solution (size-exclusion chromatography); one copy in the heterodimer with StXPB; source: E. coli Rosetta (DE3) pLysS, from pET15b, purified (heat step, ammonium sulfate, HisTrap, gel filtration)
B2: StXPB mutant E357A/E360A (enzyme, Sulfolobus tokodaii)
chain: MVYLRYFKGLILSDAYAPGLKWSDELKAYSALAFKYRDVRKYFLEKEIEVEENVIDSLPFPLIKDKIELRDYQAEAVKAWLKEKRGIIVLPTGAGKTQVALKIVSIMKVATLIVVPTIDLITQWKERINKYLDFDPGIIGGGEDSLKGITVITYDSAYTRAEELGNKFPLLIFDEVHHLPSEGYSIMAQLFASPYRLGLTATPERDDGKHELYPILVGPIVYRKSVEELAGKYIAKYKIKKLYVSLTNEEKKRYDGLRKKLKDFLSSRGLKLQNLDDFHRLVKLAAKDKEAREALLAWHESLNIAVNSQSKIEKLREILQEYKNEKIIVFTRDTQMAYRISKTFLIPVVTYKTDKDAREAILQKFRDGEYRVIVASTVFDEGVDVPDATLAIVMGGYGTKRQFLQRLGRILRKKDKEALLIEIVTKGTADYRLSRRRRE
notes: Expression and purification of the mutants are not described
B3: His6-AfBax1 (Archaeoglobus fulgidus Bax1) (enzyme)
chain: T2 sequence with A133D, A135E
notes: residues 1-467 are seen in the crystal of the untagged form; Used in ITC as His6-AfBax1; also called wild type AfBax1; source: E. coli Rosetta, from pET-28b, purified in the same way as His6-AfXPB
B4: His6-AfXPB (Archaeoglobus fulgidus XPB) (enzyme, UniProt O29889 1-452, looked up)
chain: MQMIAEIYYERGTIVVKGDAHVPHAKFDSRSGTYRALAFRYRDIIEYFESNGIEFVDNAADPIPTPYFDAEISLRDYQEKALERWLVDKRGCIVLPTGSGKTHVAMAAINELSTPTLIVVPTLALAEQWKERLGIFGEEYVGEFSGRIKELKPLTVSTYDSAYVNAEKLGNRFMLLIFDEVHHLPAESYVQIAQMSIAPFRLGLTATFEREDGRHEILKEVVGGKVFELFPDSLAGKHLAKYTIKRIFVPLAEDERVEYEKREKVYKQFLRARGITLRRAEDFNKIVMASGYDERAYEALRAWEEARRIAFNSKNKIRKLREILERHRKDKIIIFTRHNELVYRISKVFLIPAITHRTSREEREEILEGFRTGRFRAIVSSQVLDEGIDVPDANVGVIMSGSGSAREYIQRLGRILRPSKGKKEAVLYELISRGTGEVNTARRRKNAAKGAA
notes: residues 1-445 and 17 residues of the N-terminal His6 tag are seen in the crystal; also called full length AfXPB; source: E. coli Rosetta (DE3) pLysS, purified (heat step, HisTrap, HiTrap SP, Sephacryl S-200); not shown: His6, N-terminal, kept
B5: His6-AfXPB C-terminal half (residues 234-452) (domain or fragment, Archaeoglobus fulgidus, UniProt O29889 234-452, looked up)
chain: LAGKHLAKYTIKRIFVPLAEDERVEYEKREKVYKQFLRARGITLRRAEDFNKIVMASGYDERAYEALRAWEEARRIAFNSKNKIRKLREILERHRKDKIIIFTRHNELVYRISKVFLIPAITHRTSREEREEILEGFRTGRFRAIVSSQVLDEGIDVPDANVGVIMSGSGSAREYIQRLGRILRPSKGKKEAVLYELISRGTGEVNTARRRKNAAKGAA
notes: also called AfXPB-CTD; His6-AfXPB-CTD; source: purified

Legend:
[1] = target: StBax1 mutant L89A/F90A/P94S/V95S (Sulfolobus tokodaii) (UniProt Q970I1); experiment: ITC; His6-StXPB (30 uM) injected into His6-StBax1 (3 uM); 16 injections of 2.36 ul; 40 C; 10 mM Tris-Cl pH 7.5, 200 mM NaCl, 5% glycerol, 0.01% sodium azide; single binding site fit; similar procedures for mutants
[2] = target: the molecule itself; experiment: SEC; S200 size-exclusion chromatography of the proteins alone and mixed; calibrated with Conalbumin (75 kDa), Ovalbumin (44 kDa) and Lactalbumin (14 kDa)
[3] = target: T1, StBax1 mutant R86A/R87A; experiment: ITC; His6-StXPB (30 uM) injected into His6-StBax1 (3 uM); 16 injections of 2.36 ul; 40 C; 10 mM Tris-Cl pH 7.5, 200 mM NaCl, 5% glycerol, 0.01% sodium azide; single binding site fit; similar procedures for mutants; conditions: both partners purified
[4] = target: B3; experiment: ITC; His6-AfXPB (139.5 uM) or His6-AfXPB-CTD (202 uM) injected into His6-AfBax1 (13.3 uM); 16 injections of 2.36 ul; 40 C; 10 mM Tris-Cl pH 7.5, 500 mM NaCl, 5% glycerol, 0.01% sodium azide; single binding site fit; similar procedures for mutants; conditions: both partners purified
[5] = target: T2, AfBax1 mutant D133A/E135A; experiment: as above; conditions: both partners purified

| Molecule | stoichiometry N [2] | Kd [4] | stoichiometry N [4] | also measured |
| --- | --- | --- | --- | --- |
| His6-StXPB (Sulfolobus tokodaii XPB, XPBII) (from UniProt Q970I2 1-439) (enzyme) | – | – | – | stoichiometry N [1]: 1 |
| B1 | 2 | – | – | – |
| B2 | – | – | – | Kd [3]: 0.0649 µM; stoichiometry N [3]: 1 |
| B3 | 2 | – | – | – |
| B4 | – | 0.0152 µM | 1 | Kd [5]: 0.157 µM; stoichiometry N [5]: 1 |
| B5 | – | 0.0005 µM | 1 | – |
